Measurements as given in patent publication US20210253711A1 (CULLINAN MICA, published 2021).
Blank lines part the entries; values can stand above or below the binder they belong to.

What was measured:
[1] = biological target: T1, Recombinant MICA*02 protein; assay: ELISA, coated MICA*02, OD 450 nm
T1 construct: Coated on ELISA plates
T1 sequence (Q29983 whole entry, species assumed, looked up): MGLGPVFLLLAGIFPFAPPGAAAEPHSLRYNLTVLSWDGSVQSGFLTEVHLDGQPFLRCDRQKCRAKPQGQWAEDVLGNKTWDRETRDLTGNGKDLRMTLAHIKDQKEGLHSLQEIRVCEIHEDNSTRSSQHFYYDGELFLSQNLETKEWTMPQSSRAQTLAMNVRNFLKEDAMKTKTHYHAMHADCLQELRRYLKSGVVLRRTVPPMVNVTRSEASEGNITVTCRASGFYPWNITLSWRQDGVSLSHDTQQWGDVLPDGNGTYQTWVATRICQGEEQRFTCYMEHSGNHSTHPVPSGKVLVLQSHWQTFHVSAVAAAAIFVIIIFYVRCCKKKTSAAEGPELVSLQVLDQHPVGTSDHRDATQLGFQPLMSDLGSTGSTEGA
Protocol: (§1) Recombinant MICA*01, MICA*02, MICA*04, MICA*08, MICA*09, and MICB proteins were diluted to 1 μg/ml in 50 mM sodium carbonate buffer, pH 9.6, and coated onto high binding 96-well microplates (Corning #9018), 100 ng in 100 ul per well. The following morning, coated ELISA plates were washed three times with TBS-Tween-20, pH 7.4 and then blocked in SuperBlock T20 Blocking Buffer (Pierce #37536). After blocking, ELISA plates were washed once with TBS-T and incubated with serially diluted anti-MICA antibody (0-1 μg/ml) for approximately two hours at room temperature. Following the incubation, ELISA plates were washed three times with TBS-T and then incubated with Goat anti-Mouse IgG (H+L)-HRP conjugate (ThermoFisher Scientific #626520) for 45 minutes at room temperature with shaking (˜400 rpm). After the incubation, ELISA plates were washed three times with TBS-T and incubated with Super Sensitive Liquid Substrate TMB (Sigma #T4444), 100 ul per well, until color development was sufficient. The reaction was stopped with 1N sulfuric acid, 100 ul per well. Optical density (OD) values were measured at 450 nm using a microplate reader.

[2] = biological target: T2, Recombinant MICA*01 protein (Homo sapiens (Human), UniProt Q29983 24-307); assay: ELISA, coated MICA*01, OD 450 nm
T2 construct: Coated on ELISA plates
T2 sequence: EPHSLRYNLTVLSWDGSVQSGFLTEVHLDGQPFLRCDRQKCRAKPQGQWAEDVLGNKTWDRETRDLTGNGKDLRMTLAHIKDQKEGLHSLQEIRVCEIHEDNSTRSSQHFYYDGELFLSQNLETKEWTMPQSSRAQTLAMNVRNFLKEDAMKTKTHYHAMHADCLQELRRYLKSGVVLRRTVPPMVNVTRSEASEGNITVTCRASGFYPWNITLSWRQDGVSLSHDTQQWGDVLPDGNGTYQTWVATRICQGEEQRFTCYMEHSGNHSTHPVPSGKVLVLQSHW
Protocol: as §1

[3] = biological target: T3, Recombinant MICA*09 protein; assay: ELISA, coated MICA*09, OD 450 nm
T3 construct: Coated on ELISA plates
T3 sequence (Q29983 whole entry, species assumed, looked up): T1 sequence (Q29983 whole entry, species assumed, looked up)
Protocol: as §1

Recombinant MICB protein = biological target: T4, Recombinant MICB protein (UniProt Q29980 23-298, limits assumed); assay: ELISA, coated MICB, OD 450 nm
T4 construct: Coated on ELISA plates
T4 sequence (looked up): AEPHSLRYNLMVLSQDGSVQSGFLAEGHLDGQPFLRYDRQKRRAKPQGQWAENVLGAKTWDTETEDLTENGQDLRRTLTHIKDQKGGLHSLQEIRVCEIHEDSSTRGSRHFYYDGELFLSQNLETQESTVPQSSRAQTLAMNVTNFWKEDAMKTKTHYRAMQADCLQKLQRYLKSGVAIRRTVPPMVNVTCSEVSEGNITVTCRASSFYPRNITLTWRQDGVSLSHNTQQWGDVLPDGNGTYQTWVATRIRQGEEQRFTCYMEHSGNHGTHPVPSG
Protocol: as §1

[4] = biological target: T5, Recombinant MICA*04 protein; assay: ELISA, coated MICA*04, OD 450 nm
T5 construct: Coated on ELISA plates
T5 sequence (Q29983 whole entry, looked up): T1 sequence (Q29983 whole entry, species assumed, looked up)
Protocol: as §1

[5] = biological target: T6, Recombinant MICA*08 protein; assay: ELISA, coated MICA*08, OD 450 nm
T6 construct: Coated on ELISA plates
T6 sequence (Q29983 whole entry, looked up): T1 sequence (Q29983 whole entry, species assumed, looked up)
Protocol: as §1

EC50 (read off the curve) [1]: ~30 ng/mL
EC50 (read off the curve) [2]: ~30 ng/mL
EC50 (read off the curve) [3]: ~30 ng/mL
EC50 (read off the curve) (Recombinant MICB protein): ~30 ng/mL
EC50 (read off the curve) [4]: ~30 ng/mL
EC50 (read off the curve) [5]: ~30 ng/mL
B1: 3F9.E4 (antibody, V domains shown)
VH: EVQLQESGEGLVKPGGSLKLSCAASGFTFSNYAMSWVRQTPEKRLEWVAYISPGGDYIYYADTVKGRFTISRDNARNTLYLQMSSLKSEDTAMYYCTTDRRHYGSYAMDYWGQGISVTVSS
VL: DIVMTQAAPSVPVTPGESVSISCRSSKSLLHSNGNTYLYWFLQRPGQSPQLLIYRMSNLASGVPDRFSGSGSGTAFTLRISRVEAEDVGVYYCMQHLEYPFTFGSGTKLEIK
notes: the mAb was captured on anti-mouse IgG Fc biosensors and detected with goat anti-mouse IgG, so it is a mouse IgG; also called anti-MICA/B mAb; anti-MICA antibody

EC50 (read off the curve) [1]: ~30 ng/mL
EC50 (read off the curve) [2]: ~30 ng/mL
EC50 (read off the curve) [3]: ~30 ng/mL
EC50 (read off the curve) (Recombinant MICB protein): ~30 ng/mL
B2: 16F10.C12 (antibody, V domains shown)
VH: EVQLQESGPGLVAPSQSLSITCTVSGFSLTAFGVNWVRQPPGKGLEWLGMIWGDGNTDYNSTLRSRLSISKDNSKSQVFLKLNSLQTDDTARYFCARETYYGNYAGLGYWGQGTLVTVSA
VL: QIVLTQSPAIMSASIGERVTMTCTASSSVSSNYLHWYQQKPRSSPKLWIYTTSNLASGVPTRFSGSGSGTSYSLTISSMEAEDAATYYCHQFHRSPFTFGSGTKLEIK
notes: as for B1
